{
  "source": "paper PMC2925374",
  "about": "“Oligomerization of Uukuniemi virus nucleocapsid protein” (Virology Journal, 2010)",
  "proteins": {"B1": {"name": "Uukuniemi virus nucleocapsid (N) protein, full-length wild type (pcDNA-UUKV-N) (natural protein)", "chain": "MAMPENWVRFAIEISDAQWEEEEIREFINLFQYQGFDAAVVLSRIFELAKKADLSRDQMLRDIRALITLHLTRGNKLSSIEKRLSEEGKKEFALLKARYQLVDKAKEAADLTLSRIAIANAGLTCRILPQVVAHTAVTRSRMESLSADYPVCMMHNAFAGLIDETLPEDSIKALVDAHRLYLLEFSRTINVKHRGMEAKEILDANDSALQAGLASSFLTPSQKRAYLLSFKLVDGNGKVNKAVQQAATVLRSLI", "notes": "Uukuniemi virus nucleocapsid (N) protein, 254 aa residues; No tag is mentioned; detected with a rabbit antiserum against UUKV-N; also called UUKV-N protein; wt N protein; source: COS-7, transfected (pcDNA-UUKV-N), in lysate"}, "B2": {"name": "UUKV-N protein point mutant W19A, mammalian two-hybrid fusions (natural protein)", "chain": "B1 chain with W19A", "notes": "Uukuniemi virus nucleocapsid (N) protein, 254 aa residues; Mutation introduced into both the DNA-BD and the DNA-AD fusion; no chain carries both domains; source: HeLa, transfected, mammalian two-hybrid fusions"}, "B3": {"name": "UUKV-N protein point mutant I14A, mammalian two-hybrid fusions (natural protein)", "chain": "B1 chain with I14A", "notes": "as for B2"}, "B4": {"name": "UUKV-N protein double mutant QQ244,245AA, mammalian two-hybrid fusions (natural protein)", "chain": "B1 chain with Q244A, Q245A", "notes": "Uukuniemi virus nucleocapsid (N) protein, 254 aa residues; source: HeLa, transfected, mammalian two-hybrid fusions"}, "B5": {"name": "UUKV-N protein point mutant F27A, mammalian two-hybrid fusions (natural protein)", "chain": "B1 chain with F27A", "notes": "as for B2"}, "B6": {"name": "UUKV-N protein point mutant I24A, mammalian two-hybrid fusions (natural protein)", "chain": "B1 chain with I24A", "notes": "as for B2"}, "B7": {"name": "UUKV-N protein point mutant W7A, mammalian two-hybrid fusions (natural protein)", "chain": "B1 chain with W7A", "notes": "as for B2"}, "B8": {"name": "UUKV-N protein point mutant Y33A, mammalian two-hybrid fusions (natural protein)", "chain": "B1 chain with Y33A", "notes": "Uukuniemi virus nucleocapsid (N) protein, 254 aa residues; Mutation introduced into both the DNA-BD and the DNA-AD fusion; no chain carries both domains; also called negative control mutant; source: HeLa, transfected, mammalian two-hybrid fusions"}, "B9": {"name": "UUKV-N protein point mutant F31A, mammalian two-hybrid fusions (natural protein)", "chain": "B1 chain with F31A", "notes": "as for B2"}, "B10": {"name": "UUKV-N protein point mutant R251A, mammalian two-hybrid fusions (natural protein)", "chain": "B1 chain with R251A", "notes": "as for B4"}, "B11": {"name": "UUKV-N protein point mutant F10A, mammalian two-hybrid fusions (natural protein)", "chain": "B1 chain with F10A", "notes": "as for B2"}},
  "note": "Numbering of substitutions follows the chain as printed. Names and notes keep the numbering of the source. Values joined by “and” are separate entries in the source; they are usually repeats but may differ in a detail not shown here. Equal values may be shown once.",
  "data": [
    {"target": "the molecule itself", "experiment": "cross-linking; lysates of transfected COS-7 cells (PBS pH 7.4, freeze-thawed), 0.1 or 0.5 mM BS3, 30 min at room temperature, quenched with 50 mM Tris-HCl pH 7.5; 10% SDS-PAGE, immunoblot with rabbit antiserum against UUKV-N", "values": [
      {"protein": "B1", "stoichiometry N": "2 and 3"}
    ]},
    {"target": "the molecule itself", "experiment": "two-hybrid; mammalian two-hybrid in HeLa cells: GAL4 DNA-BD (pM) and VP16 DNA-AD (pVP) fusions, pG5luc firefly luciferase normalised to Renilla luciferase, 24 h post-transfection; percent of the wt N-N interaction", "units": {"M2H % of interaction": "%"}, "values": [
      {"protein": "B2", "M2H % of interaction": "> 100"},
      {"protein": "B3", "M2H % of interaction": "60 ± 18"},
      {"protein": "B4", "M2H % of interaction": "> 100"},
      {"protein": "B5", "M2H % of interaction": "> 100"},
      {"protein": "B6", "M2H % of interaction": "56 ± 12"},
      {"protein": "B7", "M2H % of interaction": "> 100"},
      {"protein": "B8", "M2H % of interaction": "> 100"},
      {"protein": "B9", "M2H % of interaction": "23 ± 5"},
      {"protein": "B10", "M2H % of interaction": "96 ± 11"},
      {"protein": "B11", "M2H % of interaction": "34 ± 4"}
    ]}
  ]
}
